According to publication PMC5928214, “Direct binding of CEP85 to STIL ensures robust PLK4 activation and efficient centriole assembly” (Nature Communications, 2018):
Each block holds one molecule with its values, some of them ahead of it.

Tests used:
3xStrep-GFP-tagged STIL = assay: microtubule recruitment assay in cells (MAP7-mCherry-CEP85 / GFP-STIL co-transfection, fluorescence microscopy); details: U-2 OS STIL CRISPR KO cells, co-transfected for 24 h; parent: 98; read off a plot
[1] = target: T1, H. sapiens CEP85 570-656 (CEP85 cc4) (Homo sapiens (Human), UniProt Q6P2H3); assay: ITC (25 °C, plus AUC); text gives only a range of ~14-65 µM, nM is its midpoint; affinity varies ~14-65 µM with experimental conditions; CEP85 cc4 must be dimeric to bind (dimer favoured at reduced temperature)
T1 chain: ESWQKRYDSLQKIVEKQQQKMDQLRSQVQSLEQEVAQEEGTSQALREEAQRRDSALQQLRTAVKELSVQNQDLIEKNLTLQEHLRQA

[2] = target: T2, H. sapiens CEP85 570-656 (CEP85 cc4) (human, UniProt Q6P2H3 570-656); assay: ITC; 10 °C
T2 chain: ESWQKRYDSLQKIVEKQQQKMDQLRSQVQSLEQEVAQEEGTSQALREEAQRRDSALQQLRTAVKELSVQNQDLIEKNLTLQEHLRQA

[3] = target: the molecule itself; assay: crystal structure; H. sapiens CEP85 570-656 alone; 18 °C, 100 mM Na-HEPES pH 7.7, 200 mM Na-Citrate, 36% MPD; 1.7 Å
chicken STIL NTD = target: T3, chicken STIL NTD (chicken (Gallus gallus), UniProt A0A8V1A6L7 1-365); assay: ITC + AUC; recombinant chicken STIL NTD and human CEP85 cc4; affinity given as a range depending on the experimental conditions; details: both partners purified
T3 construct: STIL, chicken (Gallus gallus), N-terminal domain (NTD), 66% identical to human STIL NTD; construct details in the Supplementary Information; also called Gallus gallus STIL NTD; STIL NTD WT
T3 sequence (looked up): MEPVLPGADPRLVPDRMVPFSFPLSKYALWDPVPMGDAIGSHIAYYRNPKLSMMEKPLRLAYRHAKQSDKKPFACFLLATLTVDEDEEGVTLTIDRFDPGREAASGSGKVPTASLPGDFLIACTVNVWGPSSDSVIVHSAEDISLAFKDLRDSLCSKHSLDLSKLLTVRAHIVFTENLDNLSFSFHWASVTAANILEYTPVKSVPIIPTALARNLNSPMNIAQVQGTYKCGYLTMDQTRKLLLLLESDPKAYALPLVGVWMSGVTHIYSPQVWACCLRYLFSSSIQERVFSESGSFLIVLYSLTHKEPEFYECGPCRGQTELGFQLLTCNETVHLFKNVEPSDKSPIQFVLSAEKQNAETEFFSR

Molecule: 3xFLAG-MAP7(17-282)-mCherry-CEP85 wild type mutant Q640A [human] / 3xStrep-GFP-tagged STIL [not stated] chain 2 Q640A
screen value (3xStrep-GFP-tagged STIL): 22 % of cells

Molecule: 3xFLAG-MAP7(17-282)-mCherry-CEP85 wild type mutant Q640A; E644A [human] / 3xStrep-GFP-tagged STIL [not stated] chain 2 Q640A, chain 2 E644A
screen value (3xStrep-GFP-tagged STIL): 11 % of cells

B1: chicken STIL NTD (domain or fragment)
chain: MEPVLPGADPRLVPDRMVPFSFPLSKYALWDPVPMGDAIGSHIAYYRNPKLSMMEKPLRLAYRHAKQSDKKPFACFLLATLTVDEDEEGVTLTIDRFDPGREAASGSGKVPTASLPGDFLIACTVNVWGPSSDSVIVHSAEDISLAFKDLRDSLCSKHSLDLSKLLTVRAHIVFTENLDNLSFSFHWASVTAANILEYTPVKSVPIIPTALARNLNSPMNIAQVQGTYKCGYLTMDQTRKLLLLLESDPKAYALPLVGVWMSGVTHIYSPQVWACCLRYLFSSSIQERVFSESGSFLIVLYSLTHKEPEFYECGPCRGQTELGFQLLTCNETVHLFKNVEPSDKSPIQFVLSAEKQNAETEFFSR
Kd [1]: ~30 µM
Kd [2]: 59 µM

Now from value to molecule, other results behind:

screen value (3xStrep-GFP-tagged STIL): 47 % of cells
Molecule: 3xFLAG-MAP7(17-282)-mCherry-CEP85 wild type mutant E644A [human] / 3xStrep-GFP-tagged STIL [not stated] chain 2 E644A

Kd (chicken STIL NTD): 14 to 65 µM
B2: H. sapiens CEP85 570-656 (CEP85 cc4) (domain or fragment, human, UniProt Q6P2H3 570-656, looked up)
chain: ESWQKRYDSLQKIVEKQQQKMDQLRSQVQSLEQEVAQEEGTSQALREEAQRRDSALQQLRTAVKELSVQNQDLIEKNLTLQEHLRQA
notes: CEP85, human, fourth coiled-coil domain (cc4), residues 570-656; Limits are those printed for the crystallised construct; Parallel coiled-coil dimer in the crystals; monomer-dimer equilibrium in solution at room temperature; also called human CEP85 cc4; CEP85 coiled-coil
stoichiometry N [3]: 2
